The values that follow come from US20260167721A1 (ABLEXIS, published 2026).

In assay [1] the target is T1, recombinant human CD3 epsilon/delta heterodimer (human, UniProt P07766 23-126; P04234 22-105).
T1 construct: Recombinant protein in solution (200-50 nM) in the Octet assay; also called hCD3 E/D; human CD3E/D
As to the kind of experiment: Octet BLI, mAb on FAB2G sensor, hCD3 E/D 200-50 nM; R^2 0.98.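 Also: antibodies purified from hybridoma supernatants, measured by Octet binding to recombinant human CD3 protein.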 For orientation: BLI is a label-free optical method that tracks binding on a fibre tip over time.
Method: (§1) Samples were evaluated by flow cytometry analysis against Jurkat and human Pan-T cells (FIG. 1B) as well as by Octet against recombinant human CD3 proteins to evaluate apparent affinities and binding off-rates (Table 6, infra).

In assay [2] the target is T2, recombinant human CD3 epsilon/gamma heterodimer (human, UniProt P07766 23-126; P09693 23-116).
T2 construct: Recombinant protein in solution (200-50 nM) in the Octet assay; also called hCD3 E/G
T2 sequence (P07766 23-126, chain 1 of 2): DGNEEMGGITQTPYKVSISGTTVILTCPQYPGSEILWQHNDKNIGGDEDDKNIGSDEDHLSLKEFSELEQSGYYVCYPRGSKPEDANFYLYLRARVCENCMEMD
T2 sequence (P09693 23-116, chain 2 of 2): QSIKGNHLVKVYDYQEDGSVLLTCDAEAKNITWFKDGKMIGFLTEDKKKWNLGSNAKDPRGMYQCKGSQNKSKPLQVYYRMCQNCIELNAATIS
As to the kind of experiment: Octet BLI, mAb on FAB2G sensor, hCD3 E/G 200-50 nM; R^2 0.98.
Method: as §1

The target of assay [3] is T1, recombinant human CD3 epsilon/delta …. As to the kind of experiment: Octet BLI, mAb on FAB2G sensor, hCD3 E/D 200-50 nM; R^2 0.99.
In assay [4] the target is T2, recombinant human CD3 epsilon/gamma …. The assay is described as follows: Octet BLI, mAb on FAB2G sensor, hCD3 E/G 200-50 nM; R^2 0.99.
In assay [5] the target is T1, recombinant human CD3 epsilon/delta …. The assay is described as follows: Octet BLI, mAb on FAB2G sensor, hCD3 E/D 200-50 nM; R^2 1.00.

T1 sequence (P07766 23-126, stated change not applied, chain 1 of 2): as the sequence (P07766 23-126, chain 1 of 2) above
T1 sequence (P04234 22-105, stated change not applied, chain 2 of 2): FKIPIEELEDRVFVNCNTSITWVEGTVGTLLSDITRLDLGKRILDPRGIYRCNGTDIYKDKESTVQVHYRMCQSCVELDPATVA

B1: ABL-CD3-34 (antibody, V domains shown)
VH: EVHLVESGGGLVKPGGSLRLSCAASGFTFSRYSMNWVRQAPGKGLEWVSSISRSSSYIYYADSVKGRFTISRDNAKNSLYLQMNSLRAEDTAVYYCAREPRTLGMDYWGQGILVTVSS
VL: NFMLTQPHSVSESPGKTVTISCTRSSGSIASNYVQWYQQRPGSSPTTVIYEDNQRPSGVPDRFSGSIDSSSNSASLTISGLKTEDEADYYCQSYDSSNRVFGGGTKLTVL
notes: Chimeric hybridoma mAb: human V, CH1, upper hinge; mouse middle hinge, CH2, CH3
Regarding B1, in assay [1], the equilibrium dissociation constant (Kd) (commonly a measure of binding affinity in units of concentration) is 9.01 nM; the Response was found to be 0.93; the off-rate (koff) (as a rule, the first-order rate constant of dissociation) was 0.00211 s⁻¹; the kon (in general, the rate constant with which the complex forms) came out at 234000 M⁻¹ s⁻¹. For the same molecule, in assay [2], the dissociation constant (Kd) came out at 9.82 nM, the Response is 0.89, the koff was 0.00196 s⁻¹ and the kon was found to be 199000 M⁻¹ s⁻¹.

B2: ABL-CD3-60 (antibody, V domains shown)
VH: EVQLVESGGGLVKPGGSLRLSCAASGFTFSIYSMNWVRQAPGKGLEWVSSISSGSSYIYYADSVKGRFTISRDNAKSSLFLQMNSLRAEDTAVYYCAREKRELLFDYWGQGTLVTVSS
VL: NFMLTQPHSVSESPGKTVTISCTRSSGSIASNYVQWYQQRPGSSPTTVIYEDNQRPSGVPDRFSGSIDRSSNSASLTISGLKTEDEADYYCQSYDSSNRVFGGGTKLTVL
notes: as for B1
Turning to B2, in assay [2], the dissociation constant (Kd) is 90.7 nM, the Response came out at 0.07, the koff came to 0.0583 s⁻¹ and the on-rate (kon) was 642000 M⁻¹ s⁻¹. Moreover, in assay [3], the Kd amounted to 231 nM, the Response is 0.1, the koff stood at 0.0962 s⁻¹ and the kon was found to be 417000 M⁻¹ s⁻¹.

B3: ABL-CD3-62 (antibody, V domains shown)
VH: EVQLVESGGGLVKPGGSLRLSCAASGFTFSSYSMNWVRQAPGKGLEWVSSISRSSGYIFYADSVKGRFTISRDNAKNSLYLQMNSLRAEDTAVYYCVRERVGAGFDYWGQGTLVTVSS
VL: NFMLTQPHSVSESPGKTVAISCTRSSGSIASNYVQWYQQRPGSSPTAVIYEDNQRPSGVPDRFSGSIDSSSNSAFLTISGLKTEDEADYYCQSYDSSNRVFGGGTKLTVL
notes: as for B1
Regarding B3, in assay [1], the dissociation constant Kd was 34 nM, the Response turned out to be 0.56, the off-rate (koff) amounted to 0.00765 s⁻¹ and the on-rate constant (kon) was 225000 M⁻¹ s⁻¹. For the same molecule, in assay [2], the Kd stood at 23.8 nM, the Response was determined as 0.69, the koff was found to be 0.00391 s⁻¹ and the kon worked out at 164000 M⁻¹ s⁻¹.

B4: ABL-CD3-63 (antibody, V domains shown)
VH: QVQLQESGPGLVKPSETLSLTCTVSGGSISSYYWSWIRQPAGKGLEWIGRIYTSGSTKYNPSLKSRVTMSVDTSKNQFSLKLISVTAADTAVYFCARERIRDLYFDYWGQGTLVTVSS
VL: NFMLTQPHSVSESPGKTVTISCTRTSGSIASNYVQWYQQRPGSSPTTVIYEDNQRPSGVPDRFSGSIDSSSNSASLTISGLKTEDEAAYYCQSYDRSNRVFGGGTKLTVL
notes: as for B1
In the case of B4, in assay [2], the Kd turned out to be 90.4 nM, the Response was 0.34, the koff amounted to 0.0182 s⁻¹ and the kon is 202000 M⁻¹ s⁻¹. Further, in assay [3], the dissociation constant Kd is 11.5 nM, the Response worked out at 0.89, the off-rate (koff) was 0.00145 s⁻¹ and the on-rate constant (kon) is 127000 M⁻¹ s⁻¹.

B5: ABL-CD3-51 (antibody, V domains shown)
VH: EVQLVESGGGLVKPGGSLRLSCAASGFTFSSYSMNWVRQAPGKGLEWVSSISRSSSYIYYADSVKGRFTISRDNAKNSLYLQMNSLRAEDTAVYYCARERWELLYFDYWGQGTLVTVSS
VL: NFMLTQPHSVSESPGKTVTISCTRSSGSIASNYVQWYQQRPGSSPTTVIYEDNQRPSGVPDRFSGSIDSSSNSASLTISGLKTEDEADYYCQSYDSSNRVFGGGTKLTVL
notes: as for B1
In the case of B5, in assay [1], the dissociation constant Kd is 77.1 nM, the Response worked out at 0.21, the koff is 0.0188 s⁻¹ and the kon worked out at 244000 M⁻¹ s⁻¹. In assay [2], the dissociation constant (Kd) was determined as 233 nM, the Response was found to be 0.06, the koff was determined as 0.163 s⁻¹ and the kon was found to be 699000 M⁻¹ s⁻¹.

B6: ABL-CD3-59 (antibody, V domains shown)
VH: EVQLVESGGGLVKPGGSLRLSCTASGFTLSSYSMNWVRQAPGKGLEWVSSLSRSSNYIYYAVSVKGRFTISRDNAKNSLYLQMNSLRAEDTAVYYCARERWELLYFDYWGQGTLVTVSS
VL: NFMLTQPHSVSESPGKTVTISCTRSSGSIASNYVQWYQQRPGSSPTTVIYEDNQRPSGVPDRFSGSIDSSSNSASLTISGLQTEDEADYYCQSYDNSIRVFGGGTKLTVL
notes: as for B1
B6: in assay [4], the dissociation constant Kd came to 43.3 nM, the Response is 0.58, the off-rate constant (koff) is 0.00487 s⁻¹ and the association rate constant (kon) was 113000 M⁻¹ s⁻¹. Further, in assay [5], the equilibrium dissociation constant (Kd) came out at 12.7 nM, the Response is 0.81, the koff worked out at 0.00105 s⁻¹ and the on-rate constant (kon) was found to be 83100 M⁻¹ s⁻¹.

B7: ABL-CD3-49 (antibody, V domains shown)
VH: EVQLVESGGGLVKPGGSLRLSCSASGFTFSTYTMNWVRQAPGKGLEWVSSISKSSSYIYYTDSVKGRFTISRDNAKNSLYLQMNSLRAEDTAVYYCARERRTLAFDIWGQGTMVTVSS
VL: NFMLTQPHSVSESPGKTVTISCTRSSGSIASNYVQWYQQRPGSSPTTVIYEDNQRSSGVPDRFSGSIDSSSNSASLTISGLKTEDEADYYCQCYDRSNRVFGGGTKLTVL
notes: as for B1
As to B7, in assay [2], the equilibrium dissociation constant (Kd) is 11.4 nM, the Response turned out to be 0.82, the koff came to 0.00253 s⁻¹ and the kon worked out at 223000 M⁻¹ s⁻¹. In addition, in assay [3], the Kd was 6.52 nM, the Response was 0.93, the off-rate constant (koff) stood at 0.00131 s⁻¹ and the on-rate constant (kon) is 200000 M⁻¹ s⁻¹.

B8: ABL-CD3-52 (antibody, V domains shown)
VH: EVQLVESGGGLVKPGGSLRLSCAASGFTFSYYSMNWVRQAPGKGLEWVSSISRSTTYIYYADSVKGRFTISRDNAKNSLYLQMNSLRAEDTAVYYCARDGKGAIFLDYWGQGTLVTVSS
VL: SYELTQPPSVSVSPGQTARITCSGDALPKKYAYWYQQKSGQAPVLVIYEDSKRPSGIPERFSGSSSGTMATLTISGAQVEDEADYYCYSTDSSGNHRVFGGGTKLTVL
notes: as for B1
B8: in assay [1], the Kd came out at 54 nM, the Response was found to be 0.35, the off-rate constant (koff) came out at 0.0202 s⁻¹ and the on-rate constant (kon) came out at 373000 M⁻¹ s⁻¹. In assay [2], the Kd is 233 nM, the Response was 0.14, the koff was found to be 0.115 s⁻¹ and the kon amounted to 495000 M⁻¹ s⁻¹.

B9: ABL-CD3-41 (antibody, V domains shown)
VH: EVQLVESGGGLVKPGGSLRLSCAASGFTFSSYSMNWVRQAPGKGLEWVSSVNSRGSYIYYADSVKGRFTISRDNAKDSLYLQMNSLRADDTAVYYCARDRRELLLDYWGQGTLVTVSS
VL: SYELTQPPSVSVSPGQTARITCSGDALPKKYAYWYQQKSGQAPVLVIYEDSKRPSGIPERFSGSSSGTMATLTISGAQVEDEADYYCYSTDSSGNHCWVFGGGTKLTVL
notes: as for B1
Consider B9, for which, in assay [4], the dissociation constant Kd turned out to be 295 nM, the Response came to 0.1, the koff came to 0.25 s⁻¹ and the association rate constant (kon) worked out at 846000 M⁻¹ s⁻¹. Further, in assay [5], the dissociation constant Kd was 85 nM, the Response was 0.34, the off-rate (koff) is 0.0395 s⁻¹ and the on-rate constant (kon) amounted to 464000 M⁻¹ s⁻¹.

B10: ABL-CD3-57 (antibody, V domains shown)
VH: EVQLVESGGGLVKPGGSLRLSCAASGFTFSSYTMNWVRQAPGKGLEWVSSISTSSRYIYYTDSVKGRFTISRDDAKNSLYLQMNSLRAEDTAVYYCTRNWGYDVFDIWGQGTMVIVSS
VL: QPVLTQPSSHSASSGASVRLTCMLSSGFSVGDFWIRWYQQKPGNPPRYLLYYHSDSNKGQGSGVPSRFSGSNDASANAGILRISGLQPEDEADYYCGTWHSNSKTQVFGGGTKLTVL
notes: as for B1
B10: in assay [1], the equilibrium dissociation constant (Kd) is 4.29 nM, the Response was found to be 0.49, the off-rate (koff) was found to be 0.000277 s⁻¹ and the kon turned out to be 64700 M⁻¹ s⁻¹. In assay [4], the Kd amounted to 3.97 nM, the Response was 0.54, the koff was found to be 0.00026 s⁻¹ and the kon came to 65400 M⁻¹ s⁻¹.
